Laboratory results reported in publication doi:10.1101/2022.05.04.490607 (bioRxiv, 2022).

T1: recombinant 14-3-3ζ, P63104
T1 chain: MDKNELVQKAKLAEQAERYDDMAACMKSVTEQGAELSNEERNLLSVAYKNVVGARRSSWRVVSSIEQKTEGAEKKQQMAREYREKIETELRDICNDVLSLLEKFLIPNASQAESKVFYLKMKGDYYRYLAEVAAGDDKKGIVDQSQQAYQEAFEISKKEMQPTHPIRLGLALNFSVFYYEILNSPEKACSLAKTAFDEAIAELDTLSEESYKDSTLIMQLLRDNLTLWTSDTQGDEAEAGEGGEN

B1: recombinant 14-3-3ζ, P63104 1-245 (natural protein)
chain: T1 chain
B2: CDC37 (full-length human, C-terminal Myc-DDK tag) (natural protein)
chain: MVDYSVWDHIEVSDDEDETHPNIDTASLFRWRHQARVERMEQFQKEKEELDRGCRECKRKVAECQRKLKELEVAEGGKAELERLQAEAQQLRKEERSWEQKLEEMRKKEKSMPWNVDTLSKDGFSKSMVNTKPEKTEEDSEEVREQKHKTFVEKYEKQIKHFGMLRRWDDSQKYLSDNVHLVCEETANYLVIWCIDLEVEEKCALMEQVAHQTIVMQFILELAKSLKVDPRACFRQFFTKIKTADRQYMEGFNDELEAFKERVRGRAKLRIEKAMKEYEEEERKKRLGPGGLDPVEVYESLPEELQKCFDVKDVQMLQDAISKMDPTDAKYHMQRCIDSGLWVPNSKASEAKEGEEAGPGDPLLEAVPKTGDEKDVSV
modifications: phosphoserine at S13 (seen in the cryo-EM map; further sites in Table S1)

Legend:
[1] = target: T1, recombinant 14-3-3ζ, P63104; test: cryo-EM structure; details: remark: other sources report otherwise
[2] = target: HSP90 beta (full-length human, N-terminal HA tag) (human, UniProt P08238 1-724, phosphorylated (sites in Table S1)); test: SEC-MALS
HSP90 beta (full-length human, N-terminal HA tag), sequence (P08238 whole entry): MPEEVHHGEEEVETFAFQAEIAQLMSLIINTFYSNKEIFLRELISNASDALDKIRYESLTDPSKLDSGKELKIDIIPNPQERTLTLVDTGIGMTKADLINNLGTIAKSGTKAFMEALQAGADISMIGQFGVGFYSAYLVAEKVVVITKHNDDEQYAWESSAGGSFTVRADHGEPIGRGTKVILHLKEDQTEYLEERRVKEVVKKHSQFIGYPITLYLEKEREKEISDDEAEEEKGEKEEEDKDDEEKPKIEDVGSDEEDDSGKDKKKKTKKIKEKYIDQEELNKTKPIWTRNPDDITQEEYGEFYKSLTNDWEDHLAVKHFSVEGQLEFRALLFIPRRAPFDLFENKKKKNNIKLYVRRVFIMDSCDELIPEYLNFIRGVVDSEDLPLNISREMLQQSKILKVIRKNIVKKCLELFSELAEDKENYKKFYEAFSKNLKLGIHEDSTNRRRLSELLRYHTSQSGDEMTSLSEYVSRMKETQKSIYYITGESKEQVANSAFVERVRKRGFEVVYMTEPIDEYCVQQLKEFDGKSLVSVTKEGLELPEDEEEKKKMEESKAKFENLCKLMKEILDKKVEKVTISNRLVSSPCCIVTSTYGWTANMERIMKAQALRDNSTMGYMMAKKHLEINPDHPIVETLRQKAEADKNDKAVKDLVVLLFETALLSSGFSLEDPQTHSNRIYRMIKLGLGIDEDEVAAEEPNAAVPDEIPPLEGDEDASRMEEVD

Row | Binder | stoichiometry N [1] | binding result [2]
1 | B1 | 2 | –
2 | B2 | – | binds
